Protein production data for twelve sequences are collected here from a protein production outcome set (Wang et al. 2014).

The series can be described thus: label from the status in PepcDB records.

Turning to “MLLFEQPVDLEKNNEDDTNIKPFAISRHFLLKLLLCGIILIELLLYSKCPKPIDNGPRTIANRSNTYFNGTHDFKTLTILISIDGFHPRLIDAKYTPFLYNLHNLRSPYDMNITTAPYMIPSFPTQTFPNHWSMVTGKYPIEHGIVSNIFWDNFTSSEFRPNNLDARIWSNTADPIWQLLQTESQGEYKVATHMWPGSEVVYEDHGDVPRERMPFYFGKFNQWEKLQDKLAQIFRYIDMPQLKDRPELVISYIPNVDSYGHSFGYDLRDKRLQKLIGEVDGFFLDLIEGLQKRNLLKISNVMIVSDHGMSNVNANDGEHVVVWERVFPADAMSAFISHLYNEGPMMMVCLKNPRDKQWICDLIEAQLEKAYGDEISRKFHVILKEDFDPSWKYFQYDNRKHRYDDRVGDIWILADEYYAIVKEMGDVPIGIMGTHGYNFNNCSDMASIFIGMGPMFNNEVVPPFENIEVYNMLIKASALLGEEKTKKEKSLLQ”, the protein production result was “failed”.
“MLLHNGPMKLAEALIERADLQKRAAQLEERLVQNMQVQEGEVPAEDPRELLNELLTVSSALEVLLPRIHRANLSATLPSGQTLTDALTRRDLLDARLKALRRAATAAAERQTRYSNSELRMVAVIPPSELQKLADVMAKERRELEVQIQQANWQTDLPGSGALEHHHHHH”: the protein production entry is “not failed”.
In the case of “MLLQKSKVLVLNASYEPLSICDARNAVLLLFCGKAMMVASHPEHRIRTVTENFPLPSIVRLMVYVRIDYRGAVLNRKNLFRRDGFRCQYCGCKDGSLTVDHVMPKSRGGEDTWENLITACKSCNTKKGNRTPSEAGMAMLNKPCRPSNITLMRQHYRSISDEWKPYLFMS”, the protein production result is “failed”.
Consider “MLLRLPLLDLTPLPAPFYELAKDVEQSLITDPEKAREVAAKLHAATDTAQGLHRAYAELLLARTLLSTRQWQAALESFEKARKSLLALERAALVAHAVLGRVYILLGTGQYAEASAEAAELEAQLANGPVQAMEIRALALNAIAYAEYAQGRPVQAINHLKEALKLREQLSPIIIAACLCNLGISNIEQGNYREAIYWLMEAYRAHPDSNEDRQLELATLTNLAYAHYLAGDLSLATEITQKAYAAAGEWQSYKVRAYSALNLGTYNTELQQTGRARSYLQEALVLSQTQPELTADAVLRASILDSLGTLEHQDGNSESALELYTRAREIAQRDELPAVEALTQLNIGRMLGQLGRPEARAELERALELAVAACLFKEQFEAHTALAELTAAAADWRSAYRHQQELTRLKLHLLEGEHERQRKELRAELDLEQMRREGELSRERLKIEVAARERAEAETLERTQQLAQAQREVVLCLALAAEYRDSITGEHIKRVGTFAAHIALALGWSQADAELLMLASRLHDVGKIGIPDSILLKPGKLTEVEYVQMQAHTLIGSQILGQGNSALLKLAQTIALSHHERWNGEGYPYGLHGEAIPLAGRIVAVADVYDALIQRRPYKAAWTPEQAAAELSAQAGRHFDPALVEVALRILNDVHYSVDELKELGPPTVGPAAASLERELALRTQELQEARKNAGELLQLALSDSLTGLHNRRALELDLEQRIYPGAVDFYMTSLDLDSLKEINDSQGHQYGDQLLRQFALCLRQSCAAGKTYRIGGDEFAVLWNLDVTEQDIVQVLRRLPQNLRVTGQPGISFSYGSACYNRDAATAGDLLRVSDARMYRMKVGRRGEETDSIWFKEDH”, for which the protein production entry is “failed”.
Take “MLLSIITVAFRNLEGIVKTHASLAHLAQVEDISFEWIVVDGGSNDGTREYLENLNGIFNLRFVSEPDNGIYDAMNKGIAMAQGKFALFLNSGDIFHQNAANFVRKLKMQKDNVMITGDALLDFGDGHKIKRSAKPGWYIYHSLPASHQAIFFPVSGLKKWRYDLEYKVSSDYALAAKMYKAGYAFKKLNGLVSEFSMGGVSTTNNMELCADAKKVQRQILHVPGFWAELSWHLRQRTTSKTKALYNKV”: the protein production result was “failed”.
As to “MLLTLEQELFTQFGYAAFKPGQKEVITNLLDGMNTLAVLPTGTGKSLCYQFVGQKLEGLTVIVSPLLSLMEDQMRQLQRQGIKGAVALNSTLQYSEKRYILAKMFQYDYLFLSPEMLLQQEVLSVLQRQKIALFVVDEAHCVYQWGVDFRPEYSKLDLVQKQLDFPLTLALTATATPVVQHAIIKQLFSHGSYQEVLSSVNRKNIGLFVKETSEKEEVLLDYLSKTAGKIIIYCATRNKTEQISQLIQAKTSFKVAYYHGGLEASERSRLQEQFIDNQIDILCATNAFGMGIDKPDVRGVIHFDLPDSLENYLQEIGRAGRDGQKSWALLLYKKGDEFIHRFFLEETRANRATLKSLIEGEEQAGLLENATELQQKWVQGYLAKDYSFEELEHRLEEKEKDRQAQLRGMLTYIETTTCRRTLIQTYFQEPIVKQSPETCCDNCALFFDIYQDSIVKSNKTSNQNEEGWRSKFLKLFKERD”, the protein production result is “failed”.
Regarding “MLMKVAEFERLFRQAAGLDVDKNDLKRVSDFLRNKLYDLLAVAERNAKYNGRDLIFEPDLPIAKGLQETLQEFRRMDTALELKPVLDALAALPPLDLEVAEDVRNLLPELAGALVVAYARVLKELDPALKNPQTEHHERAERVFNLLL”, the protein production result was “not failed”.
For “MLMMLKSLRVNRILKLLLLAIFSSFMIIACGDRLTQYTVSQKISPSTECQVIQHQVGETQVCGQPQKIVALGPNVLEILLALDVQPVGFADHVPLHQGNYDNPSQQIPYLGERVTGELINLGLAYTPSIEALLKIKPDLIIGNELNRSQYEMLSKIAPTLLFPRFDAQPNLLAISKILGRSEKAKKILADSDQRLAIAQKALSDIVANHPQVLMLVSLGQSISEQLRFPRRDSFCDSLVTNLGFKLMSPSSLVPADKSVPPPLSIETLPQFNSADSIILLGANFSQVQLSDDKYFEPQMQKLKQQWSENAIAQSLTASKEGRVYFIPAYLCLGLPGPIGTELYLQELQKQLLSPQGK” the value was “failed”; for “MLMNLPEILKNQKARARKFKPVKMSKRTELWYRQQLKQFVKMMTNDVERALQQPQGSFFMDDAKGFQAISAKALMKVLEKYEKSDRTSQAENIANGFVSRGDAQNHAEVSTNLKNQTGIDLSAYLRNSPNITEKVNALTAGNIQLIKSIRSQYLDKVQNAVMQAMVRGSLNKDLAAQIKDLGKTTEKRAMFIARDQSSKLNAALTQARHEEVGIKKYMWSASLDERVRESHAEKDGQIFEYANPPADTDHPGHDFNCRCVQIPVLDNNEQIVKNSPIVSQQEKQQMRSEWSDDFPDTIIDRKLGDATSHPLYENAKKGSIEDAYQLAKDLVTDDAVNKLKQLVGNKNAILIPVHAEEAVGQNMIPVAIATVLSKKLHIPVDLSIVQATKVSRTGGDGWHRLVYSPAFDGIVPKDKYAIILDDTQTQGGTLASLKGYIIKEKLLHLML”, “failed”.
Take “MLMRTTRKISITDYGVYYYKTCRSIFDLLHESAEVASNVIHNPEGVLNISMPRSFGIFGFLPTLEKFYRIHPKIRVDVSISDSLVDFSENRFDAAVRLGVLSDSSLVARPLRPYKLVLCASPAYLARKGRPATPKDLIVHDCIATYFDEYRTAWNTLQNTWEFLCADGEFIKVSVPARMQVNDAQGVCIMVLSGQGIALLPEIIVSAHLTEGRLIELLPDYQIPSRPMSLVYRKNSLMPFKLKAFIGFLMDEFS”: the protein production entry was “failed”.
Next, “MLNLQRMSLFIAVVDSGSFTAAAAASGQTKAVVSFNIRQLEKELGVTLLLRSTRRLTLTDAGVLFYQKGVNLLNAAKNLQDEVRASHSGLGGELRITTTSEFGEQVVIPVLAQFSQRHPDLRIRHMSSSHHADLIAERFDVAIRLGSLADSRYRAALISRFTILPVAAPQWLARNPVSSLESLAQAEWIIHERLPTPLRWTVTNNHGQHSRLEISKAGKISVDSARSLMAFALAGSGVALLPQWLVNTALEDGTLIHLLPDYHFPRQGIYAVYPDARHVSTKVRAFIDFLRSQWDCGEHAPSS”: “failed”.
For the sequence “MLNQFPKLRLTPFTTGIVAIFLFSLVIRFWNLGQFNQLVFDEVYYAKFASDYWLGNDFFPSHPPLSHYLIALAMGLGQVFPVNPEQVNDLTGAVRSTWSYRWLNALTGATIPLLLGAIAYLLTQRRLVTLLTMGLVALDGLFLVESRYALNNIYLVFFGLLGQALVLWHLRQEKLWQLILGGISLACAGSVKWNGFAFLLGVYLLWAIAWVKPFFNQGWTKGERQANSLQLLDRDGENNQGFLSRWLIISPLKFAIWLVLVPVITYSVIWIPHLLMNGEYASLEGFWRIQRETWQYHRRVGNSPDIHPYCSPWYSWLLMARPIAYFYQKSGQFGLINDVHAMANPILLWFSTGAMALLTGTVIWQKIRQFSSQTINAPLRGITLYIEVNYAVNLLPWLGISRCTFFYHYLPAYAFSILALALILETLLDSPRHSHNVIAWAVLTLVAIAFWYWLPVFLGLPLTPRGFALRMLFPSWI”, the protein production result was “failed”.
